Source: patent US20110052565A1 (NATIONAL RESEARCH COUNCIL OF CANADA, published 2011)

What was measured:
[1] = target: T1, porcine pancreatic α-amylase (porcine, UniProt P00690 16-511); experiment: phage ELISA, round 3 of heat denaturation panning; VH displayed on phage; member by Table 2, column R3
T1 construct: Bought (Sigma); The source is named only for the ELISA with soluble VHs; the panning and phage ELISA paragraphs say only α-amylase; also called a-amylase
T1 sequence (looked up): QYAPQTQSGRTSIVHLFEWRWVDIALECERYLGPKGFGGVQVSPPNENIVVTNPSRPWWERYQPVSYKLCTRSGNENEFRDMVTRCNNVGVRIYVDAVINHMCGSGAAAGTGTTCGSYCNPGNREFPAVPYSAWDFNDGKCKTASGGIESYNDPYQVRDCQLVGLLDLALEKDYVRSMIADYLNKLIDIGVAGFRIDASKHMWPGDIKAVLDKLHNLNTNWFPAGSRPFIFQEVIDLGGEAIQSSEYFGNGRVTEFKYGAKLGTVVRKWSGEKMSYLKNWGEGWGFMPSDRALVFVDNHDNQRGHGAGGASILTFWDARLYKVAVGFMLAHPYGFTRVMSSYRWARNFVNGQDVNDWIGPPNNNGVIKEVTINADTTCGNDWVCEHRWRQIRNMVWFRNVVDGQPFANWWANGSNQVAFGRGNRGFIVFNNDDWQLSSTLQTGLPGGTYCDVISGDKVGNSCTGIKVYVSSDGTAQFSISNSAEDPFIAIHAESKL
Experimental: For selection by heat denaturation, input phage in a multivalent display format was used (i.e., the phages were produced by using hyperphage for superinfection). The input phage was heated at 80° C. for 10 min, cooled at 4° C. for 20 min, centrifuged at maximum speed for 2 min in a microfuge and the supernatant was added to antigen-coated wells for binding. Three rounds of panning against α-amylase by the heat denaturation method were performed. A non-treatment panning was also carried out in parallel as control. […] Monoclonal Phage ELISA on single colonies was performed (Arbabi-Ghahroudi et al., 2009). ELISA-positive clones were subjected to DNA sequencing to identify their VHs (Arbabi-Ghahroudi et al., 2009). Isoelectric points, pIs, of the VHs were determined using the software Laser gene v6.0 (DNASTAR, Inc., Madison, Wis.).

[2] = target: T1, porcine pancreatic α-amylase; experiment: phage ELISA, round 4 of heat denaturation panning; VH displayed on phage; member by Table 2, column R4
protein A [3] = target: T2, protein A (UniProt P38507 37-477); experiment: SPR (Biacore 3000), protein A immobilized; KD of native VH over KD of heat-denatured/cooled VH, unfolded at 5 µM
T2 construct: Immobilized unconjugated on a CM5 chip in SPR; used as HRP conjugate in the ELISA; also called protein A/HRP conjugate; horseradish peroxidase-protein A conjugate
Experimental: (§1) Immobilizations were carried out at a protein concentration of 50 μg/mL in 10 mM acetate buffer pH 4.5 using amine coupling kit supplied by the manufacturer. AD VHs were passed though Superdex™ 75 column (GE Healthcare) and the monomeric species were collected for refolding efficiency experiments. To obtain refolding efficiency values, VHs were incubated at 85° C. for 20 min at the concentration of 0.5 and 5 μM and were cooled to room temperature for 30 min. The VHs were centrifuged at 16,000 g in a microfuge for 5 min at 22° C. to pellet and remove any possible aggregates. […] The surfaces were washed thoroughly with the running buffer for regeneration. Refolding efficiencies were calculated from the amounts bound at steady state. Data were analyzed with BIAevaluation 4.1 software.

bovine serum albumin = target: T3, bovine serum albumin (bovine, UniProt P02769 25-607); experiment: ELISA, immobilized BSA, His6-tagged VH detected with anti-His-IgG/HRP (FIG. 9A)
T3 construct: also called BSA

protein A [4] = target: T2, protein A; experiment: SPR (Biacore 3000), protein A immobilized; KD of native VH over KD of heat-denatured/cooled VH, unfolded at 0.5 µM
Experimental: as §1

[5] = target: T1, porcine pancreatic α-amylase; experiment: told in the legend of the α-amylase inhibition figure (FIG. 10)
Experimental: Briefly, the enzyme at a final concentration of 1.5 μg/mL in 0.1% casein, 150 mM NaCl, 2 mM CaCl₂, 50 mM Tris-HCl pH 7.4 was preincubated with various concentrations of purified monomeric anti-α-amylase VHs at room temperature for 1 h (total volume: 50 μL). The mixture was split in two ELISA wells and to each well 75 μL of substrate solution (0.2 mM 2-chloro-4-nitrophenyl maltotrioside, 150 mM NaCl, 2 mM CaCl₂, 50 mM Tris-HCl pH 7.4) was added. […] The progress of reactions was monitored continuously at 25° C. by measuring the change in absorbance of reaction solutions at 405 nm (ΔA405 nm) using a PowerWave 340 microplate spectrophotometer (BioTek Instruments, Inc. Winooski, Vt.). […] The VHs was thus analyzed by ELISA.

[6] = target: T1, porcine pancreatic α-amylase; experiment: ELISA, immobilized porcine pancreatic α-amylase, His6-tagged VH, anti-His-IgG/HRP
Experimental: To assess binding of VHs to a-amylase by ELISA, Maxisorp™ microtiter plates (Nunc) were coated with 100 μL of 10 μg/mL porcine pancreatic α-amylase (Sigma, Oakville, ON, Canada) in PBS overnight at 4° C. After blocking with 3% bovine serum albumin (300 μL) for 2 h at 37° C. and subsequent removal of blocking agent, 100 μL His₆-tagged VHs at concentrations of a few μM were added, followed by incubation for 2 h at 37° C. Wells were washed 5× with PBST and 100 μL rabbit anti-His-IgG/horse radish peroxidase (HRP) conjugate (Bethyl Laboratories, Inc., Montgomery, Tex.) was added at a dilution of 1:5000. The wells were then incubated for 1 h at 37° C. After washing the wells with PBST, 100 μL […] substrate (KPL, Gaithersburg, Md.) was added and the reaction, seen as color development, was stopped after 5 min by adding 100 μL of 1 M phosphoric acid. Absorbance values were measured at a wavelength of 450 nm using a microtiter plate reader. […] Assays were performed in duplicates.

T3 sequence (P02769 25-607 limits assumed): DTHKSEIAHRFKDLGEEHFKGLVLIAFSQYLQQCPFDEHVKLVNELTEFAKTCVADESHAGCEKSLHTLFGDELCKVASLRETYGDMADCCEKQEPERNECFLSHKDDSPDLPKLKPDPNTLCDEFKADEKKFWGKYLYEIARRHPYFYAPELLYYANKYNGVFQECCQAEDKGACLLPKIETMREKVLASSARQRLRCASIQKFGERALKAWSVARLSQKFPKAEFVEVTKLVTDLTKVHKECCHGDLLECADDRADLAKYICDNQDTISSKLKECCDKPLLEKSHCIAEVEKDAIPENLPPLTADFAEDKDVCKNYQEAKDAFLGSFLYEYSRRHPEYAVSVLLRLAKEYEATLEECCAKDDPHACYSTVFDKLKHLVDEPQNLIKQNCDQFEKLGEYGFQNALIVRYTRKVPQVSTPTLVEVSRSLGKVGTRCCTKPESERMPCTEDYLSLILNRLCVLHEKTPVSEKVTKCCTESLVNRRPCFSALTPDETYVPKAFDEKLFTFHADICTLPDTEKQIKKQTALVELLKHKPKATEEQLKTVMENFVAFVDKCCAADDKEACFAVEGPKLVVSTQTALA

B1: huVHAm303 (other, not shown: small tags and cut ends)
VH: QVQLVESGGGLIKPGGSLRLSCAASGFRFSYEVMGWVRQAPGKGLEWVSAISSSGGSTYYADSVKGRFTISRDNSKNTVYLQMNSLRAEDTAVYYCVTPKVDCETHPCRERPYFWGQGTMVTVSS
notes: amber codon read as Glu in E. coli TG1
[1]
  binding result: binds

B2: huVHAm311 (other, not shown: small tags and cut ends)
VH: QVQLVESGGGLIKPGGSLRLSCAASGFRVTPECMTWVRQAPGKGLEWVSAISSSGGSTYYADSVKGRFTISRDNSKNTVYLQMNSLRAEDTAVYYCVRHEVECPTEQCPFHCPSWGQGTMVTVSS
notes: as for B1
[1]
  binding result: binds

B3: huVHAm412 (other, not shown: small tags and cut ends)
VH: QVQLVESGGGLIKPGGSLRLSCAASGDMLSAECMGWVRQAPGKGLEWVSAISSSGGSTYYADSVKGRFTISRDNSKNTVYLQMNSLRAEDTAVYYCVAKPYHCAVQGTMVTVSS
notes: as for B1
[2]
  binding result: binds

B4: huVHAm430 (other, not shown: small tags and cut ends)
VH: QVQLVESGGGLIKPGGSLRLSCAASGDRVSPEDMAWVRQAPGKGLEWVSAISSSGGSTYYADSVKGRFTISRDNSKNTVYLQMNSLRAEDTAVYYCVTSGVPSGSFWGQETMVTVSS
notes: as for B1
[2]
  binding result: binds

B5: huVHAm304 (other)
VH: VQLVESGGGLIEPGGSLRLSCAASGFSFSDEGMAWVRQAPGKGLEWVSAISSSGGSTYYADSVKGRFTISRDNSKNTVYLQMNSLRAEDTAVYYCVRLPKQCTSPDCETEVSSWGQRTMVTVSS
notes: Human VH single-domain antibody, soluble, amber codons replaced by Glu; In the phage ELISA rows the same VH stood on phage (pIII fusion); not shown: C-terminal c-Myc-His6 tag from vector pSJF2H
Protein A [3]
  TRE (%) (ratio of KDn to KDref): 87%
Bovine serum albumin
  binding result: no binding
Protein A [4]
  TRE (%) (ratio of KDn to KDref): 99%

B6: huVHAm431 (other)
VH: QVQLVESGGGLIKPGGSLRLSCAASGYTVSSECMGWVRQAPGKGLEWVSAISSSGGSTYYADSVKGRFTISRDNSKNTVYLQMNSLRAEDTAVYYCVRDSKNCHDKDCTRPYCSWGQGTMVTVSS
notes: Human VH single-domain antibody, soluble; In the phage ELISA rows the same VH stood on phage (pIII fusion); not shown: C-terminal c-Myc-His6 tag from vector pSJF2H
[2]
  binding result: binds

B7: huVHAm420 (other, not shown: small tags and cut ends)
VH: QVQLVESGGGLIKPGGSLRLSCAASGDRFSYEDMAWVPQAPGKGLEWVSAISSSGGSTYYADSVKGRFTISRDNSKNTVYLQMNSLRAEDTAVYYCVATEESCPEGNCPPPRRSWGQETMVTVSS
notes: as for B1
[2]
  binding result: binds

B8: huVHAm302 (other)
VH: QVQLVESGGGLIKPGGSLRLSCAASGDTVSDESMTWVRQAPGKGLEWVSAISSSGGSTYYADSVKGRFTISRDNSKNTVYLQMNSLRAEDTAVYYCVTDNRSCQTSLCTSTTRSWGQGTMVTVSSGSEQKLSEEDLNHHHHHH
modifications: N-terminus pyroglutamine (pyroQ)
notes: Human VH single-domain antibody, soluble with c-Myc-His6 tag, amber codon at position 32 replaced by Glu; In the phage ELISA rows the same VH stood on phage (pIII fusion)
[5]
  binding result: binds

B9: huVHAm406 (other, not shown: small tags and cut ends)
VH: QVQLVESGGGLIKPGGSLRLSCAASGFSFTPECMGWVRQAPGKGLEWVSAISSSGGSTYYADSVKGRFTISRDNSKNTVYLQMNSLRAEDTAVYYCVGHKNNCPGQGTMVTVSS
notes: as for B1
[2]
  binding result: binds

B10: huVHAm309 (other)
VH: QVQLVESGGGLIKPGGSLRLSCAASGVNFSNEGMAWVRQAPGKGLEWVSAISSSGGSTYYADSVKGRFTISRDNSKNTVYLQMNSLRAEDTAVYYCVTAQRACANSPCPGSITSWGQETMVTVSS
notes: Human VH single-domain antibody, soluble, amber codon replaced by Glu; In the phage ELISA rows the same VH stood on phage (pIII fusion); not shown: C-terminal c-Myc-His6 tag from vector pSJF2H
[6]
  binding result: binds
Protein A [3]
  TRE (%) (ratio of KDn to KDref): 93%
Bovine serum albumin
  binding result: no binding
Protein A [4]
  TRE (%) (ratio of KDn to KDref): 94%

B11: huVHAm301 (other, not shown: small tags and cut ends)
VH: QVQLVESGGGLIKPGGSLRLPCAASGFRISHEGMGWVRQAPGKGLEWVSAISSSGGSTYYADSVKGRFTISRDNSKNTAYLQMNSLRAEDTAVYYCVAYNEECTKPSCHTKARSWGQGTMVTVSS
notes: as for B1
[1]
  binding result: binds

B12: huVHAm315 (other)
VH: QVQLVESGGGLIKPGGSLRLSCAASGDMFSSEGMAWVRQAPGKGLEWVSAISSSGGSTYYADSVKGRFTISRDNSKNTVYLQMNSLRAEDTAVYYCVAAPTTCTSHNCAEPFRSWGQETMVTVSS
notes: as for B10
[1]
  binding result: binds

B13: huVHAm416 (other)
VH: QVQLVESGGGLIKPGGSLRLSCAASGVSFTDDCMAWVRQAPGKGLEWVSAISSSGGSTYYADSVKGRFTISRDNSKNTVYLQMNSLRAEDTAVYYCVADHTQCRQPECESQLCSWGQGTMVTVSS
notes: as for B10
[6]
  binding result: binds
Protein A [3]
  TRE (%) (ratio of KDn to KDref): 97%
Bovine serum albumin
  binding result: no binding
Protein A [4]
  TRE (%) (ratio of KDn to KDref): 100%

B14: huVHAm305 (other, not shown: small tags and cut ends)
VH: QVQLVESGGGLIKPGGSLRLSCAASGYRFNNEVMGWVRQAPGKGLEWVSAISSSGGSTYYADSVKGRFTISRDNSKNTVYLQMNSLRAEDTAVYYCVTSTPACNQDKCERWRPSWGQGTMVTASS
notes: as for B1
[1]
  binding result: binds

B15: huVHAm316 (other)
VH: QVQLVESGGGLIKPGGSLRLSCAASGDRFTYESMGWVRQAPGKGLEWVSAISSSGGSTYYADSVKGRFTISRDNSKNTVYLQMNSLRAEDTAVYYCVALETACTRPACAHTPRFWGQGTMVTVSS
notes: as for B10
[1]
  binding result: binds

B16: huVHAm428 (other)
VH: QVQLVESGGGLIKPGGSLRLSCAASGFSLSDDCMGWVRQAPGKGLEWVSAISSSGGSTYYADSVKGRFTISRDNSKNTVYLQMNSLRAEDTAVYYCVTGNQACKHEPWPDEALLLGPRDNVTVSS
notes: as for B10
[6]
  binding result: binds
Protein A [3]
  TRE (%) (ratio of KDn to KDref): 86%
Bovine serum albumin
  binding result: no binding
Protein A [4]
  TRE (%) (ratio of KDn to KDref): 89%

B17: huVHAm427 (other)
VH: QVQLVESGGGLIKPGGSLRLSCAASGVTLSPECMAWVRQAPGKGLEWVSAISSSGGSTYYADSVKGRFTISRDNSKNTVYLQMNSLRAEDTAVYYCVSCEGENAFWGQGTMVTASS
notes: as for B10
[2]
  binding result: binds
